According to paper PMC9712113, “Medin co-aggregates with vascular amyloid-β in Alzheimer’s disease” (Nature, 2022):

Target: the molecule itself
Assay: Thioflavin T fluorescence seeding assay; 10 µM monomeric Met-Aβ or CT-medin with 0.5 µM sonicated pre-formed seeds of either peptide; 50 mM Tris pH 8, 25 µM ThT, 30 °C

B1: C-terminal fragment of medin (peptide)
peptide: EVTGIITQGARNFGSVQFVASYK
notes: C-terminal fragment of medin / MFG-E8, identified in tissue extracts by mass spectrometry; also called CT-medin; C-terminal medin fragment; source: synthetic peptide (Intavis Multipep RSi solid phase synthesis, purity >90%)
B1: binds.
